# Molecular target: SARS-CoV-2 spike receptor-binding domain (RBD), wild type (Severe acute respiratory syndrome …, UniProt P0DTC2)
# Assay: SPR
# Conditions: both partners purified
binder,measurement,value
"7B8, recombinant fully human IgG1 (antibody, V domains shown, also called Ab4; source: ExpiCHO-S, transient expression, purified (protein A)) VH: QVQLVESGGGVVQPGRSLRLSCAASGFIFSSYGMHWVRQAPGKGLEWVAVIWFDGSNKYYADSVKGRFTISRDNSKNTLYLQMNSLRAEDTAVYYCARETVSYGMDVWGQGTTVTVSS VL: NIQMTQSPSAMSASVGDRVTITCRARQGISNYLAWFQQKPGKVPKHLIYAASSLLSGVPSRFSGSGSETEFTLTISSLQPEDFATYYCLQHNSYPYTFGQGTKLEIK",Kd,0.523 nM
same,koff,9.55e-05 s⁻¹
same,kon,182000 M⁻¹ s⁻¹

# From publication PMC8290868 (Cell Discovery, 2021)
